The results in this text go back to IntAct's records for PubMed 28698298.

The labels stand for the following.
B1: GRB10-interacting GYF protein 1 (Homo sapiens), O75420 (parent)
chain: MAAETLNFGPEWLRALSGGGSVASPPPSPAMPKYKLADYRYGREEMLALYVKENKVPEELQDKEFAAVLQDEPLQPLALEPLTEEEQRNFSLSVNSVAVLRLMGKGAGPPLAGTSRGRGSTRSRGRGRGDSCFYQRSIEEGDGAFGRSPREIQRSQSWDDRGERRFEKSARRDGARCGFEEGGAGPRKEHARSDSENWRSLREEQEEEEEGSWRLGAGPRRDGDRWRSASPDGGPRSAGWREHGERRRKFEFDLRGDRGGCGEEEGRGGGGSSHLRRCRAPEGFEEDKDGLPEWCLDDEDEEMGTFDASGAFLPLKKGPKEPIPEEQELDFQGLEEEEEPSEGLEEEGPEAGGKELTPLPPQEEKSSSPSPLPTLGPLWGTNGDGDETAEKEPPAAEDDIRGIQLSPGVGSSAGPPGDLEDDEGLKHLQQEAEKLVASLQDSSLEEEQFTAAMQTQGLRHSAAATALPLSHGAARKWFYKDPQGEIQGPFTTQEMAEWFQAGYFSMSLLVKRGCDEGFQPLGEVIKMWGRVPFAPGPSPPPLLGNMDQERLKKQQELAAAALYQQLQHQQFLQLVSSRQLPQCALREKAALGDLTPPPPPPPQQQQQQLTAFLQQLQALKPPRGGDQNLLPTMSRSLSVPDSGRLWDVHTSASSQSGGEASLWDIPINSSTQGPILEQLQLQHKFQERREVELRAKREEEERKRREEKRRQQQQEEQKRRQEEEELFRRKHVRQQELLLKLLQQQQAVPVPPAPSSPPPLWAGLAKQGLSMKTLLELQLEGERQLHKQPPPREPARAQAPNHRVQLGGLGTAPLNQWVSEAGPLWGGPDKSGGGSSGLGLWEDTPKSGGSLVRGLGLKNSRSSPSLSDSYSHLSGRPIRKKTEEEEKLLKLLQGIPRPQDGFTQWCEQMLHTLSATGSLDVPMAVAILKEVESPYDVHDYIRSCLGDTLEAKEFAKQFLERRAKQKASQQRQQQQEAWLSSASLQTAFQANHSTKLGPGEGSKAKRRALMLHSDPSILGYSLHGSSGEIESVDDY
B2: GRB10-interacting GYF protein 2 (Homo sapiens), Q6Y7W6 (parent)
chain: MAAETQTLNFGPEWLRALSSGGSITSPPLSPALPKYKLADYRYGREEMLALFLKDNKIPSDLLDKEFLPILQEEPLPPLALVPFTEEEQRNFSMSVNSAAVLRLTGRGGGGTVVGAPRGRSSSRGRGRGRGECGFYQRSFDEVEGVFGRGGGREMHRSQSWEERGDRRFEKPGRKDVGRPNFEEGGPTSVGRKHEFIRSESENWRIFREEQNGEDEDGGWRLAGSRRDGERWRPHSPDGPRSAGWREHMERRRRFEFDFRDRDDERGYRRVRSGSGSIDDDRDSLPEWCLEDAEEEMGTFDSSGAFLSLKKVQKEPIPEEQEMDFRPVDEGEECSDSEGSHNEEAKEPDKTNKKEGEKTDRVGVEASEETPQTSSSSARPGTPSDHQSQEASQFERKDEPKTEQTEKAEEETRMENSLPAKVPSRGDEMVADVQQPLSQIPSDTASPLLILPPPVPNPSPTLRPVETPVVGAPGMGSVSTEPDDEEGLKHLEQQAEKMVAYLQDSALDDERLASKLQEHRAKGVSIPLMHEAMQKWYYKDPQGEIQGPFNNQEMAEWFQAGYFTMSLLVKRACDESFQPLGDIMKMWGRVPFSPGPAPPPHMGELDQERLTRQQELTALYQMQHLQYQQFLIQQQYAQVLAQQQKAALSSQQQQQLALLLQQFQTLKMRISDQNIIPSVTRSVSVPDTGSIWELQPTASQPTVWEGGSVWDLPLDTTTPGPALEQLQQLEKAKAAKLEQERREAEMRAKREEEERKRQEELRRQQEEILRRQQEEERKRREEEELARRKQEEALRRQREQEIALRRQREEEERQQQEEALRRLEERRREEEERRKQEELLRKQEEEAAKWAREEEEAQRRLEENRLRMEEEAARLRHEEEERKRKELEVQRQKELMRQRQQQQEALRRLQQQQQQQQLAQMKLPSSSTWGQQSNTTACQSQATLSLAEIQKLEEERERQLREEQRRQQRELMKALQQQQQQQQQKLSGWGNVSKPSGTTKSLLEIQQEEARQMQKQQQQQQQHQQPNRARNNTHSNLHTSIGNSVWGSINTGPPNQWASDLVSSIWSNADTKNSNMGFWDDAVKEVGPRNSTNKNKNNASLSKSVGVSNRQNKKVEEEEKLLKLFQGVNKAQDGFTQWCEQMLHALNTANNLDVPTFVSFLKEVESPYEVHDYIRAYLGDTSEAKEFAKQFLERRAKQKANQQRQQQQLPQQQQQQPPQQPPQQPQQQDSVWGMNHSTLHSVFQTNQSNNQQSNFEAVQSGKKKKKQKMVRADPSLLGFSVNASSERLNMGEIETLDDY
B3: Eukaryotic translation initiation factor 4E type 2 (Homo sapiens), O60573-1 (parent)
chain: MNNKFDALKDDDSGDHDQNEENSTQKDGEKEKTERDKNQSSSKRKAVVPGPAEHPLQYNYTFWYSRRTPGRPTSSQSYEQNIKQIGTFASVEQFWRFYSHMVRPGDLTGHSDFHLFKEGIKPMWEDDANKNGGKWIIRLRKGLASRCWENLILAMLGEQFMVGEEICGAVVSVRFQEDIISIWNKTASDQATTARIRDTLRRVLNLPPNTIMEYKTHTDSIKMPGRLGPQRLLFQNLWKPRLNVP
partner: B1 chain

In the first assay the parent is B1. The settings on record: with EIF4E2, O60573-1.
For L60D;F65A;V68D, the “effect of a mutation on the interaction” value is recorded as “with no effect”. Regarding L60D;F65D;V68D;E86A;N95F, the “effect of a mutation on the interaction” value is reported as “disrupting interaction strength”. Regarding L60D;F65D;V68D;P76D;L77A, the “effect of a mutation on the interaction” value is on record as “disrupting interaction strength”. On the same count and under the same terms, the result for E86A;N95F reads “with no effect”.

In another assay the parent is B1. The settings on record: with EIF4E2, O60573-1. This is another data set of the same source.
As to E44F;E45A;Q87A, the “effect of a mutation on the interaction” value is on record as “with no effect”.

Variants of B1 are the subject of the next assay. The settings on record: with EIF4E2, O60573-1. This is another data set of the same source.
As for Y39A;Y41A;M46A;L47A, the “effect of a mutation on the interaction” value was “disrupting interaction strength”.

In another assay the parent is B1. The settings on record: with EIF4E2, O60573-1. The source holds these as a separate data set.
On to E44A;E45F;Q87A, for which the “effect of a mutation on the interaction” value is on record as “with no effect”.

In the next assay the parent is B2. The settings on record: with EIF4E2, O60573-1.
Y41A;Y43A;M48A;L49A: the “effect of a mutation on the interaction” value is listed as “disrupting interaction strength”.

In another assay the parent is B2. As to conditions: with EIF4E2, O60573-1. This is another data set of the same source.
Take E46A;E47F;Q89A: the “effect of a mutation on the interaction” value is “with no effect”.

A further assay covers variants of B2. The settings on record: with EIF4E2, O60573-1. This is another data set of the same source.
With E46A;E47F;Q89A, the “effect of a mutation on the interaction” value is “with no effect”.

The variants in the next assay derive from B3. The settings on record: with ggyf1_human GIGYF1, O75420.
With MNNKFDALKDDDSGDHDQNEENSTQKDGEKEKTERDKNQSSSKRKAVVPGPAEHPLQYNYTFWYSRRTPGRPTSSQSYEQNIKQIGTFASVEQFARFYSHMVRPGDLTGHSDFHLFKEGIKPMWEDDANKNGGKWIIRLRKGLASRCWENLILAMLGEQFMVGEEICGAVVSVRFQEDIISIWNKTASDQATTARIRDTLRRVLNLPPNTIMEYKTHTDSIKMPGRLGPQRLLFQNLWKPRLNVP [W95A], the “effect of a mutation on the interaction” value is reported as “disrupting interaction strength”. The same measure, in the same setting: then MNNKFDALKDDDSGDHDQNEENSTQKDGEKEKTERDKNQSSSKRKAVVPGPAEHPLQYNYTFWYSRRTPGRPTSSQSYEQNIKQAGTFASVEQFARFYSHAVRPGDLTGHSDFHLFKEGIKPMWEDDANKNGGKWIIRLRKGLASRCWENLILAMLGEQFMVGEEICGAVVSVRFQEDIISIWNKTASDQATTARIRDTLRRVLNLPPNTIMEYKTHTDSIKMPGRLGPQRLLFQNLWKPRLNVP [I85A;W95A;M101A], with “disrupting interaction strength”.

With MNNKFDALKDDDSGDHDQNEENSTQKDGEKEKTERDKNQSSSKRKAVVPGPAEHPLQYNYTFWYSRRTPGRPTSSQSYEQNIKQAGTFASVEQFWRFYSHAVRPGDLTGHSDFHLFKEGIKPMWEDDANKNGGKWIIRLRKGLASRCWENLILAMLGEQFMVGEEICGAVVSVRFQEDIISIWNKTASDQATTARIRDTLRRVLNLPPNTIMEYKTHTDSIKMPGRLGPQRLLFQNLWKPRLNVP [I85A;M101A], the “effect of a mutation on the interaction” value was “decreasing interaction strength”.

In the next assay the parent is B3. As to conditions: with ggyf1_human GIGYF1, O75420. This is another data set of the same source.
With MNNKFDALKDDDSGDHDQNEENSTQKDGEKEKTERDKNQSSSKRKAVVPGPAEHPLQYNYTFWYSRRTPGRPTSSQSYEQNIKQIGTFASVEQFARFYSHMVRPGDLTGHSDFHLFKEGIKPMWEDDANKNGGKWIIRLRKGLASRCWENLILAMLGEQFMVGEEICGAVVSVRFQEDIISIWNKTASDQATTARIRDTLRRVLNLPPNTIMEYKTHTDSIKMPGRLGPQRLLFQNLWKPRLNVP [W95A], the “effect of a mutation on the interaction” value is recorded as “with no effect”. On to MNNKFDALKDDDSGDHDQNEENSTQKDGEKEKTERDKNQSSSKRKAVVPGPAEHPLQYNYTFWYSRRTPGRPTSSQSYEQNIKQAGTFASVEQFWRFYSHAVRPGDLTGHSDFHLFKEGIKPMWEDDANKNGGKWIIRLRKGLASRCWENLILAMLGEQFMVGEEICGAVVSVRFQEDIISIWNKTASDQATTARIRDTLRRVLNLPPNTIMEYKTHTDSIKMPGRLGPQRLLFQNLWKPRLNVP [I85A;M101A], for which the “effect of a mutation on the interaction” value is reported as “with no effect”.

In a further assay the parent is B3. As to conditions: with ggyf1_human GIGYF1, O75420. This is another data set of the same source.
With MNNKFDALKDDDSGDHDQNEENSTQKDGEKEKTERDKNQSSSKRKAVVPGPAEHPLQYNYTFWYSRRTPGRPTSSQSYEQNIKQIGTFASVEQFWRFYSHMVRPGDLTGHSDFHLFKEGIKPMWEDDANKNGGKWIIRLRKGLASRCWENLILAMLGESFDVGEEICGAVVSVRFQEDIISIWNKTASDQATTARIRDTLREVLNLPPNTIMEYKTHTDSIKMPGRLGPQRLLFQNLWKPRLNVP [Q159S;M161D;R202E], the “effect of a mutation on the interaction” value is “with no effect”.
